Biological target: the molecule itself
Assay: mass photometry; protein in solution at 75 nM final; 20 mM HEPES-NaOH pH 7.5, 130 mM NaCl, 10 mM KCl, 2 mM MgCl2, 2 mM DTT, 2% glycerol; Refeyn mass photometer; mass measured three times for each protein

B1: s-OPA1 K579R (domain or fragment, human, UniProt O60313-1 195-960, looked up)
chain: ATDRGSESDKHFRKVSDKEKIDQLQEELLHTQLKYQRILERLEKENKELRKLVLQKDDKGIHHRKLKKSLIDMYSEVLDVLSDYDASYNTQDHLPRVVVVGDQSAGKTSVLEMIAQARIFPRGSGEMMTRSPVKVTLSEGPHHVALFKDSSREFDLTKEEDLAALRHEIELRMRKNVKEGCTVSPETISLNVKGPGLQRMVLVDLPGVINTVTSGMAPDTKETIFSISKAYMQNPNAIILCIQDGSVDAERSIVTDLVSQMDPHGRRTIFVLTKVDLAEKNVASPSRIQQIIEGKLFPMKALGYFAVVTGKGNSSESIEAIREYEEEFFQNSKLLKTSMLKAHQVTTRNLSLAVSDCFWKMVRESVEQQADSFKATRFNLETEWRNNYPRLRELDRNELFEKAKNEILDEVISLSQVTPKHWEEILQQSLWERVSTHVIENIYLPAAQTMNSGTFNTTVDIKLKQWTDKQLPNKAVEVAWETLQEEFSRFMTEPKGKEHDDIFDKLKEAVKEESIKRHKWNDFAEDSLRVIQHNALEDRSISDKQQWDAAIYFMEEALQARLKDTENAIENMVGPDWKKRWLYWKNRTQEQCVHNETKNELEKMLKCNEEHPAYLASDEITTVRKNLESRGVEVDPSLIKDTWHQVYRRHFLKTALNHCNLCRRGFYYYQRHFVDSELECNDVVLFWRIQRMLAITANTLRQQLTNTEVRRLEKNVKEVLEDFAEDGEKKIKLLTGKRVQLAEDLKKVREIQEKLDAFIEALHQEK
modifications: endogenous lysine acetylation, sites listed in Figure 2c
notes: Optic Atrophy 1 (OPA1), human, short form (s-OPA1), residues 195-960; domain model of isoform 1; Gene bought from Genscript in the pGS-21a vector; source: E. coli BL21 (DE3), purified (glutathione resin, 3C protease cleavage, size exclusion chromatography)
  stoichiometry N: 2

B2: s-OPA1 K663Q (domain or fragment, human, UniProt O60313-1 195-960, looked up)
chain: ATDRGSESDKHFRKVSDKEKIDQLQEELLHTQLKYQRILERLEKENKELRKLVLQKDDKGIHHRKLKKSLIDMYSEVLDVLSDYDASYNTQDHLPRVVVVGDQSAGKTSVLEMIAQARIFPRGSGEMMTRSPVKVTLSEGPHHVALFKDSSREFDLTKEEDLAALRHEIELRMRKNVKEGCTVSPETISLNVKGPGLQRMVLVDLPGVINTVTSGMAPDTKETIFSISKAYMQNPNAIILCIQDGSVDAERSIVTDLVSQMDPHGRRTIFVLTKVDLAEKNVASPSRIQQIIEGKLFPMKALGYFAVVTGKGNSSESIEAIREYEEEFFQNSKLLKTSMLKAHQVTTRNLSLAVSDCFWKMVRESVEQQADSFKATRFNLETEWKNNYPRLRELDRNELFEKAKNEILDEVISLSQVTPKHWEEILQQSLWERVSTHVIENIYLPAAQTMNSGTFNTTVDIKLKQWTDQQLPNKAVEVAWETLQEEFSRFMTEPKGKEHDDIFDKLKEAVKEESIKRHKWNDFAEDSLRVIQHNALEDRSISDKQQWDAAIYFMEEALQARLKDTENAIENMVGPDWKKRWLYWKNRTQEQCVHNETKNELEKMLKCNEEHPAYLASDEITTVRKNLESRGVEVDPSLIKDTWHQVYRRHFLKTALNHCNLCRRGFYYYQRHFVDSELECNDVVLFWRIQRMLAITANTLRQQLTNTEVRRLEKNVKEVLEDFAEDGEKKIKLLTGKRVQLAEDLKKVREIQEKLDAFIEALHQEK
modifications: endogenous lysine acetylation, sites listed in Figure 2c
notes: as for B1
  stoichiometry N: 2

B3: s-OPA1 K663R (domain or fragment, human, UniProt O60313-1 195-960, looked up)
chain: ATDRGSESDKHFRKVSDKEKIDQLQEELLHTQLKYQRILERLEKENKELRKLVLQKDDKGIHHRKLKKSLIDMYSEVLDVLSDYDASYNTQDHLPRVVVVGDQSAGKTSVLEMIAQARIFPRGSGEMMTRSPVKVTLSEGPHHVALFKDSSREFDLTKEEDLAALRHEIELRMRKNVKEGCTVSPETISLNVKGPGLQRMVLVDLPGVINTVTSGMAPDTKETIFSISKAYMQNPNAIILCIQDGSVDAERSIVTDLVSQMDPHGRRTIFVLTKVDLAEKNVASPSRIQQIIEGKLFPMKALGYFAVVTGKGNSSESIEAIREYEEEFFQNSKLLKTSMLKAHQVTTRNLSLAVSDCFWKMVRESVEQQADSFKATRFNLETEWKNNYPRLRELDRNELFEKAKNEILDEVISLSQVTPKHWEEILQQSLWERVSTHVIENIYLPAAQTMNSGTFNTTVDIKLKQWTDRQLPNKAVEVAWETLQEEFSRFMTEPKGKEHDDIFDKLKEAVKEESIKRHKWNDFAEDSLRVIQHNALEDRSISDKQQWDAAIYFMEEALQARLKDTENAIENMVGPDWKKRWLYWKNRTQEQCVHNETKNELEKMLKCNEEHPAYLASDEITTVRKNLESRGVEVDPSLIKDTWHQVYRRHFLKTALNHCNLCRRGFYYYQRHFVDSELECNDVVLFWRIQRMLAITANTLRQQLTNTEVRRLEKNVKEVLEDFAEDGEKKIKLLTGKRVQLAEDLKKVREIQEKLDAFIEALHQEK
modifications: endogenous lysine acetylation, sites listed in Figure 2c
notes: as for B1
  stoichiometry N: 2
